# Results from PMC10133702.
# pIC50: −log10 of the molar value. Where two headings read alike, the source gives them in different places.
# Columns and labels:
# Assay in all cases: radioligand binding
# [1] = molecular target: Ubiquitin (Ub)-tagged Ls-AChBP, wild type (Lymnaea stagnalis) (UniProt P58154)
# [2] = molecular target: [Q55K]Ls-AChBP, Ub-tagged (Lymnaea stagnalis) (UniProt P58154)
# [3] = molecular target: [S186E]Ls-AChBP, Ub-tagged (Lymnaea stagnalis) (UniProt P58154)
# [4] = molecular target: [T184F S186E]Ls-AChBP, Ub-tagged (Lymnaea stagnalis) (UniProt P58154)
# [5] = molecular target: [T184F]Ls-AChBP, Ub-tagged (Lymnaea stagnalis) (UniProt P58154)
# [6] = molecular target: [T184K]Ls-AChBP, Ub-tagged (Lymnaea stagnalis) (UniProt P58154)
# [7] = molecular target: Ubiquitin (Ub)-tagged Ls-AChBP, wild type (Lymnaea stagnalis) (UniProt P58154); remark: listed apart in the source
# [8] = molecular target: [H69A]Ls-AChBP, Ub-tagged (Lymnaea stagnalis) (UniProt P58154)
# [9] = molecular target: [R23D]Ls-AChBP, Ub-tagged (Lymnaea stagnalis) (UniProt P58154)
Substance,pIC50 [1],pIC50 [2],pIC50 [3],pIC50 [4],pIC50 [5],pIC50 [6],pIC50 [7],pIC50 [8],pIC50 [9]
"VxXXB-C(19–50), full-length C-terminal domain of αD-conotoxin VxXXB (peptide)",5.14,4.53,7.05,7.52,6.24,< 4.00,5.00,5.00,5.00
native αD-conotoxin VxXXB (from UniProt P0C1W6 46-95) (natural protein),7.96,,,9.00,,,,,
"VxXXB-C(21–50), C-terminal domain of αD-conotoxin VxXXB (peptide)",5.00,4.44,7.40,7.30,5.14,4.26,,,
"VxXXB-CNC, full-length synthetic VxXXB (peptide)",,,,8.40,,,6.10,< 5.00,< 5.00
